From patent publication US20210388087A1 (Chugai, published 2021)

Biological target: T1, Human CD137 ECD (human)
T1 construct: entry includes C-terminal His-tag and biotin acceptor peptide; also called human CD137 extracellular domain; 4-1BB
Experiment: Biacore SPR, vs parent H183/L072

T1 sequence (chain, as listed by the source limits assumed): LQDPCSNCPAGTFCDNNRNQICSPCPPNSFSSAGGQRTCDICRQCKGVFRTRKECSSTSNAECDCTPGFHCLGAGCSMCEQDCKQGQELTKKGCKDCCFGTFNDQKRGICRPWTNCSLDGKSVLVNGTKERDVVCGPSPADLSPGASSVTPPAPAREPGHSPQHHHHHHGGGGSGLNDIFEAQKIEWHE

Binder	fold change of affinity [fold]
H183/L072 VL G91L (antibody, name in Kabat numbering, V domains shown, Dual-Ig) VH: QVQLVESGGGLVQPGRSLRLSCAASGFTFSNAWMHWVRQAPGKGLEWVAQIKDKGNAYAAYYAPSVKGRFTISRDDSKNSIYLQMNSLKTEDTAVYYCHYVHYASASTVLPAFGVDAWGQGTTVTVSS VL: DIVMTQSPLSLPVTPGEPASISCQASQELVHMNRNTYLHWYQQKPGQAPRLLIYKVSNRFPGVPDRFSGSGSGTDFTLKISRVEAEDVGVYYCAQLTSVPFTFGQGTKLEIK	0
H183/L072 VL H27dA (antibody, name in Kabat numbering, V domains shown, Dual-Ig) VH: QVQLVESGGGLVQPGRSLRLSCAASGFTFSNAWMHWVRQAPGKGLEWVAQIKDKGNAYAAYYAPSVKGRFTISRDDSKNSIYLQMNSLKTEDTAVYYCHYVHYASASTVLPAFGVDAWGQGTTVTVSS VL: DIVMTQSPLSLPVTPGEPASISCQASQELVAMNRNTYLHWYQQKPGQAPRLLIYKVSNRFPGVPDRFSGSGSGTDFTLKISRVEAEDVGVYYCAQGTSVPFTFGQGTKLEIK	0.7
H183/L072 VL G91M (antibody, name in Kabat numbering, V domains shown, Dual-Ig) VH: QVQLVESGGGLVQPGRSLRLSCAASGFTFSNAWMHWVRQAPGKGLEWVAQIKDKGNAYAAYYAPSVKGRFTISRDDSKNSIYLQMNSLKTEDTAVYYCHYVHYASASTVLPAFGVDAWGQGTTVTVSS VL: DIVMTQSPLSLPVTPGEPASISCQASQELVHMNRNTYLHWYQQKPGQAPRLLIYKVSNRFPGVPDRFSGSGSGTDFTLKISRVEAEDVGVYYCAQMTSVPFTFGQGTKLEIK	0
H183/L072 VL G91W (antibody, name in Kabat numbering, V domains shown, Dual-Ig) VH: QVQLVESGGGLVQPGRSLRLSCAASGFTFSNAWMHWVRQAPGKGLEWVAQIKDKGNAYAAYYAPSVKGRFTISRDDSKNSIYLQMNSLKTEDTAVYYCHYVHYASASTVLPAFGVDAWGQGTTVTVSS VL: DIVMTQSPLSLPVTPGEPASISCQASQELVHMNRNTYLHWYQQKPGQAPRLLIYKVSNRFPGVPDRFSGSGSGTDFTLKISRVEAEDVGVYYCAQWTSVPFTFGQGTKLEIK	0
H183/L072 VL G91T (antibody, name in Kabat numbering, V domains shown, Dual-Ig) VH: QVQLVESGGGLVQPGRSLRLSCAASGFTFSNAWMHWVRQAPGKGLEWVAQIKDKGNAYAAYYAPSVKGRFTISRDDSKNSIYLQMNSLKTEDTAVYYCHYVHYASASTVLPAFGVDAWGQGTTVTVSS VL: DIVMTQSPLSLPVTPGEPASISCQASQELVHMNRNTYLHWYQQKPGQAPRLLIYKVSNRFPGVPDRFSGSGSGTDFTLKISRVEAEDVGVYYCAQTTSVPFTFGQGTKLEIK	0
H183/L072 VL G91S (antibody, name in Kabat numbering, V domains shown, Dual-Ig) VH: QVQLVESGGGLVQPGRSLRLSCAASGFTFSNAWMHWVRQAPGKGLEWVAQIKDKGNAYAAYYAPSVKGRFTISRDDSKNSIYLQMNSLKTEDTAVYYCHYVHYASASTVLPAFGVDAWGQGTTVTVSS VL: DIVMTQSPLSLPVTPGEPASISCQASQELVHMNRNTYLHWYQQKPGQAPRLLIYKVSNRFPGVPDRFSGSGSGTDFTLKISRVEAEDVGVYYCAQSTSVPFTFGQGTKLEIK	0
H183/L072 VL G91Q (antibody, name in Kabat numbering, V domains shown, Dual-Ig) VH: QVQLVESGGGLVQPGRSLRLSCAASGFTFSNAWMHWVRQAPGKGLEWVAQIKDKGNAYAAYYAPSVKGRFTISRDDSKNSIYLQMNSLKTEDTAVYYCHYVHYASASTVLPAFGVDAWGQGTTVTVSS VL: DIVMTQSPLSLPVTPGEPASISCQASQELVHMNRNTYLHWYQQKPGQAPRLLIYKVSNRFPGVPDRFSGSGSGTDFTLKISRVEAEDVGVYYCAQQTSVPFTFGQGTKLEIK	0
H183/L072 VL H27dD (antibody, name in Kabat numbering, V domains shown, Dual-Ig) VH: QVQLVESGGGLVQPGRSLRLSCAASGFTFSNAWMHWVRQAPGKGLEWVAQIKDKGNAYAAYYAPSVKGRFTISRDDSKNSIYLQMNSLKTEDTAVYYCHYVHYASASTVLPAFGVDAWGQGTTVTVSS VL: DIVMTQSPLSLPVTPGEPASISCQASQELVDMNRNTYLHWYQQKPGQAPRLLIYKVSNRFPGVPDRFSGSGSGTDFTLKISRVEAEDVGVYYCAQGTSVPFTFGQGTKLEIK	0.3
H183/L072 VL G91V (antibody, name in Kabat numbering, V domains shown, Dual-Ig) VH: QVQLVESGGGLVQPGRSLRLSCAASGFTFSNAWMHWVRQAPGKGLEWVAQIKDKGNAYAAYYAPSVKGRFTISRDDSKNSIYLQMNSLKTEDTAVYYCHYVHYASASTVLPAFGVDAWGQGTTVTVSS VL: DIVMTQSPLSLPVTPGEPASISCQASQELVHMNRNTYLHWYQQKPGQAPRLLIYKVSNRFPGVPDRFSGSGSGTDFTLKISRVEAEDVGVYYCAQVTSVPFTFGQGTKLEIK	0
H183/L072 VL G91R (antibody, name in Kabat numbering, V domains shown, Dual-Ig) VH: QVQLVESGGGLVQPGRSLRLSCAASGFTFSNAWMHWVRQAPGKGLEWVAQIKDKGNAYAAYYAPSVKGRFTISRDDSKNSIYLQMNSLKTEDTAVYYCHYVHYASASTVLPAFGVDAWGQGTTVTVSS VL: DIVMTQSPLSLPVTPGEPASISCQASQELVHMNRNTYLHWYQQKPGQAPRLLIYKVSNRFPGVPDRFSGSGSGTDFTLKISRVEAEDVGVYYCAQRTSVPFTFGQGTKLEIK	0
H183/L072 VL G91P (antibody, name in Kabat numbering, V domains shown, Dual-Ig) VH: QVQLVESGGGLVQPGRSLRLSCAASGFTFSNAWMHWVRQAPGKGLEWVAQIKDKGNAYAAYYAPSVKGRFTISRDDSKNSIYLQMNSLKTEDTAVYYCHYVHYASASTVLPAFGVDAWGQGTTVTVSS VL: DIVMTQSPLSLPVTPGEPASISCQASQELVHMNRNTYLHWYQQKPGQAPRLLIYKVSNRFPGVPDRFSGSGSGTDFTLKISRVEAEDVGVYYCAQPTSVPFTFGQGTKLEIK	0
H183/L072 VL G91N (antibody, name in Kabat numbering, V domains shown, Dual-Ig) VH: QVQLVESGGGLVQPGRSLRLSCAASGFTFSNAWMHWVRQAPGKGLEWVAQIKDKGNAYAAYYAPSVKGRFTISRDDSKNSIYLQMNSLKTEDTAVYYCHYVHYASASTVLPAFGVDAWGQGTTVTVSS VL: DIVMTQSPLSLPVTPGEPASISCQASQELVHMNRNTYLHWYQQKPGQAPRLLIYKVSNRFPGVPDRFSGSGSGTDFTLKISRVEAEDVGVYYCAQNTSVPFTFGQGTKLEIK	0

Next, values leading:

fold change of affinity [fold]	Binder
0.6	H183/L072 VL H27dK (antibody, name in Kabat numbering, V domains shown, Dual-Ig) VH: QVQLVESGGGLVQPGRSLRLSCAASGFTFSNAWMHWVRQAPGKGLEWVAQIKDKGNAYAAYYAPSVKGRFTISRDDSKNSIYLQMNSLKTEDTAVYYCHYVHYASASTVLPAFGVDAWGQGTTVTVSS VL: DIVMTQSPLSLPVTPGEPASISCQASQELVKMNRNTYLHWYQQKPGQAPRLLIYKVSNRFPGVPDRFSGSGSGTDFTLKISRVEAEDVGVYYCAQGTSVPFTFGQGTKLEIK
0.6	H183/L072 VL H27dE (antibody, name in Kabat numbering, V domains shown, Dual-Ig) VH: QVQLVESGGGLVQPGRSLRLSCAASGFTFSNAWMHWVRQAPGKGLEWVAQIKDKGNAYAAYYAPSVKGRFTISRDDSKNSIYLQMNSLKTEDTAVYYCHYVHYASASTVLPAFGVDAWGQGTTVTVSS VL: DIVMTQSPLSLPVTPGEPASISCQASQELVEMNRNTYLHWYQQKPGQAPRLLIYKVSNRFPGVPDRFSGSGSGTDFTLKISRVEAEDVGVYYCAQGTSVPFTFGQGTKLEIK
0.6	H183/L072 VL H27dG (antibody, name in Kabat numbering, V domains shown, Dual-Ig) VH: QVQLVESGGGLVQPGRSLRLSCAASGFTFSNAWMHWVRQAPGKGLEWVAQIKDKGNAYAAYYAPSVKGRFTISRDDSKNSIYLQMNSLKTEDTAVYYCHYVHYASASTVLPAFGVDAWGQGTTVTVSS VL: DIVMTQSPLSLPVTPGEPASISCQASQELVGMNRNTYLHWYQQKPGQAPRLLIYKVSNRFPGVPDRFSGSGSGTDFTLKISRVEAEDVGVYYCAQGTSVPFTFGQGTKLEIK
0.4	H183/L072 VL H27dF (antibody, name in Kabat numbering, V domains shown, Dual-Ig) VH: QVQLVESGGGLVQPGRSLRLSCAASGFTFSNAWMHWVRQAPGKGLEWVAQIKDKGNAYAAYYAPSVKGRFTISRDDSKNSIYLQMNSLKTEDTAVYYCHYVHYASASTVLPAFGVDAWGQGTTVTVSS VL: DIVMTQSPLSLPVTPGEPASISCQASQELVFMNRNTYLHWYQQKPGQAPRLLIYKVSNRFPGVPDRFSGSGSGTDFTLKISRVEAEDVGVYYCAQGTSVPFTFGQGTKLEIK
0.8	H183/L072 VL H27dI (antibody, name in Kabat numbering, V domains shown, Dual-Ig) VH: QVQLVESGGGLVQPGRSLRLSCAASGFTFSNAWMHWVRQAPGKGLEWVAQIKDKGNAYAAYYAPSVKGRFTISRDDSKNSIYLQMNSLKTEDTAVYYCHYVHYASASTVLPAFGVDAWGQGTTVTVSS VL: DIVMTQSPLSLPVTPGEPASISCQASQELVIMNRNTYLHWYQQKPGQAPRLLIYKVSNRFPGVPDRFSGSGSGTDFTLKISRVEAEDVGVYYCAQGTSVPFTFGQGTKLEIK
0.6	H183/L072 VL H27dL (antibody, name in Kabat numbering, V domains shown, Dual-Ig) VH: QVQLVESGGGLVQPGRSLRLSCAASGFTFSNAWMHWVRQAPGKGLEWVAQIKDKGNAYAAYYAPSVKGRFTISRDDSKNSIYLQMNSLKTEDTAVYYCHYVHYASASTVLPAFGVDAWGQGTTVTVSS VL: DIVMTQSPLSLPVTPGEPASISCQASQELVLMNRNTYLHWYQQKPGQAPRLLIYKVSNRFPGVPDRFSGSGSGTDFTLKISRVEAEDVGVYYCAQGTSVPFTFGQGTKLEIK
0.8	H183/L072 VL H27dP (antibody, name in Kabat numbering, V domains shown, Dual-Ig) VH: QVQLVESGGGLVQPGRSLRLSCAASGFTFSNAWMHWVRQAPGKGLEWVAQIKDKGNAYAAYYAPSVKGRFTISRDDSKNSIYLQMNSLKTEDTAVYYCHYVHYASASTVLPAFGVDAWGQGTTVTVSS VL: DIVMTQSPLSLPVTPGEPASISCQASQELVPMNRNTYLHWYQQKPGQAPRLLIYKVSNRFPGVPDRFSGSGSGTDFTLKISRVEAEDVGVYYCAQGTSVPFTFGQGTKLEIK
0.6	H183/L072 VL H27dM (antibody, name in Kabat numbering, V domains shown, Dual-Ig) VH: QVQLVESGGGLVQPGRSLRLSCAASGFTFSNAWMHWVRQAPGKGLEWVAQIKDKGNAYAAYYAPSVKGRFTISRDDSKNSIYLQMNSLKTEDTAVYYCHYVHYASASTVLPAFGVDAWGQGTTVTVSS VL: DIVMTQSPLSLPVTPGEPASISCQASQELVMMNRNTYLHWYQQKPGQAPRLLIYKVSNRFPGVPDRFSGSGSGTDFTLKISRVEAEDVGVYYCAQGTSVPFTFGQGTKLEIK
0.5	H183/L072 VL H27dN (antibody, name in Kabat numbering, V domains shown, Dual-Ig) VH: QVQLVESGGGLVQPGRSLRLSCAASGFTFSNAWMHWVRQAPGKGLEWVAQIKDKGNAYAAYYAPSVKGRFTISRDDSKNSIYLQMNSLKTEDTAVYYCHYVHYASASTVLPAFGVDAWGQGTTVTVSS VL: DIVMTQSPLSLPVTPGEPASISCQASQELVNMNRNTYLHWYQQKPGQAPRLLIYKVSNRFPGVPDRFSGSGSGTDFTLKISRVEAEDVGVYYCAQGTSVPFTFGQGTKLEIK
